# Source: publication PMC12173945, “Import mechanism of peroxisomal proteins with an N-terminal signal sequence” (Nature Cell Biology, 2025)
# What was measured:
# PEX5–GFP in YG hydrogel = test: YG hydrogel release assay, PEX5–GFP (Fig. 6d); format: biochemical; settings: fourfold excess of PEX39
# Method: YG hydrogels were prepared in a glass-bottomed plate as described earlier and equilibrated for 3 h at RT in Assay Buffer containing 0.5 µM PEX7–GFP or PEX5–GFP with or without PTS2 peptide and receptor at the concentrations specified in the text. Following the initial incubation, the hydrogels were imaged on a Nikon A1R point-scanning confocal system, as described earlier, with a Nikon ×10 0.45 NA Plan Apo air objective, a pinhole dilated to 1.4 Airy units and a pixel size of 2 µm. A solution of purified PEX39 was then spiked into each reaction and the hydrogels imaged every 2 min for an additional 1 h at RT.
# For the PEX7-release assay from YG hydrogels, the total fluorescence within a 30-µm-wide band in the gel extending for 150 µm from the gel edge into the gel was measured at each time point. This distance was sufficient to fully encompass the permeation front of each fluorescent species. The resulting values were then normalized to the total fluorescence inside the gel at the start of the experiment and plotted as a function of time.
# [1] = tested on: PEX7–receptor–cargo complex on PEX39-coated beads; test: Bead-binding assay: recruitment of PEX7–receptor–cargo complex to PEX39-coated beads (Fig. 7d, 8a); set-up: species or system yeast (S. cerevisiae); settings: no peptide, Fig. 7d
# Text: (§1) Cysteine-containing peptides were covalently conjugated to thiol-reactive SulfoLink coupling resin (Thermo Fisher, catalogue number 20401) according to the manufacturer’s instructions. The prepared beads were then mixed with Assay Buffer containing the fluorescently labelled protein as well as additional components indicated in the text, and the resulting bead suspensions were transferred to a 384-well glass-bottomed plate (Cellvis, P384-1.5H-N). GST-fusion proteins were instead mixed with glutathione agarose 4B (Prometheus, 20-543) in Assay Buffer containing the fluorescently labelled protein and additional components indicated in the text; the resulting bead suspensions were then transferred to a glass-bottomed plate as above. The plates were incubated at RT for the durations specified in the text and directly imaged on the spinning-disk confocal platform described earlier for peroxisomal import reactions in Xenopus egg extract. Note that imaging the beads directly in the binding reaction preserves the equilibrium and thereby allows even weak interactions to be detected. Fluorescence was collected through a Nikon ×10 0.45 NA Plan Apo air objective, and images were acquired using the Nikon NIS-Elements software and a 16-bit digitizer without binning. Imaging parameters were configured to maximize the SNR while avoiding saturation. Samples intended to be compared were imaged using identical acquisition settings.
# [2] = tested on: PEX39–PEX7 complex and PTS2–GFP cargo; test: Bead-binding assay: recruitment of PTS2–GFP to PEX7- or PEX39-coated beads (Fig. 7b,c); set-up: species or system yeast (S. cerevisiae)
# Text: as §1, with “Samples intended to be compared were imaged using identical acquisition settings.” left out
molecule,measurement,setting,value
"PEX39 (WT): PEX39 from S. cerevisiae (GenBank accession no. NP_012546.4) (protein, left off: GST, N-terminal, cleaved) MAAGGELSYEELLDHILNNKPIPNIVEVPNVTLDEGLASTPSLRPRPRPWEGQLQHQSHQGSLDKPNISLDIDQESLEGMTSLTRLSECYDIQSKLQINDSDNDNDDNNNDNNKGDGNDDDNNTVTANPTAR",Extraction of PEX5–GFP from YG hydrogel,PEX5–GFP in YG hydrogel,unable to extract PEX5–GFP from the hydrogel
same,Recruitment of PEX7–PEX5-21–PTS2–GFP complex to PEX39-coated beads,[1],could be recruited to beads coated with wild-type PEX39
same,Recruitment of PTS2–GFP cargo to PEX39–PEX7,[2],PTS2–GFP cargo was indeed recruited to PEX7-coated beads in the presence of PEX39
